{
  "source": "paper PMC9045712",
  "about": "(Science Advances, 2022)",
  "binders": {"B1": {"name": "recombinant NPM1 (nucleophosmin), from 6x His-FLAG-TEV-NPM1 (natural protein)", "chain": "MEDSMDMDMSPLRPQNYLFGCELKADKDYHFKVDNDENEHQLSLRTVSLGAGAKDELHIVEAEAMNYEGSPIKVTLATLKMSVQPTVSLGGFEITPPVVLRLKCGSGPVHISGQHLVAVEEDAESEDEDEEDVKLLGMSGKRSAPGGGNKVPQKKVKLDEDDEDDDEDDEDDEDDDDDDFDEEETEEKVPVKKSVRDTPAKNAQKSNQNGKDLKPSTPRSKGQESFKKQEKTPKTPKGPSSVEDIKAKMQASIEKGGSLPKVEAKFINYVKNCFRMTDQEAIQDLWQWRKSL"}},
  "target": "recombinant MCM2 (minichromosome maintenance protein 2), from 6x His-FLAG-TEV-MCM2 (mouse, UniProt P97310 1-904)",
  "sequence (P97310 whole entry)": "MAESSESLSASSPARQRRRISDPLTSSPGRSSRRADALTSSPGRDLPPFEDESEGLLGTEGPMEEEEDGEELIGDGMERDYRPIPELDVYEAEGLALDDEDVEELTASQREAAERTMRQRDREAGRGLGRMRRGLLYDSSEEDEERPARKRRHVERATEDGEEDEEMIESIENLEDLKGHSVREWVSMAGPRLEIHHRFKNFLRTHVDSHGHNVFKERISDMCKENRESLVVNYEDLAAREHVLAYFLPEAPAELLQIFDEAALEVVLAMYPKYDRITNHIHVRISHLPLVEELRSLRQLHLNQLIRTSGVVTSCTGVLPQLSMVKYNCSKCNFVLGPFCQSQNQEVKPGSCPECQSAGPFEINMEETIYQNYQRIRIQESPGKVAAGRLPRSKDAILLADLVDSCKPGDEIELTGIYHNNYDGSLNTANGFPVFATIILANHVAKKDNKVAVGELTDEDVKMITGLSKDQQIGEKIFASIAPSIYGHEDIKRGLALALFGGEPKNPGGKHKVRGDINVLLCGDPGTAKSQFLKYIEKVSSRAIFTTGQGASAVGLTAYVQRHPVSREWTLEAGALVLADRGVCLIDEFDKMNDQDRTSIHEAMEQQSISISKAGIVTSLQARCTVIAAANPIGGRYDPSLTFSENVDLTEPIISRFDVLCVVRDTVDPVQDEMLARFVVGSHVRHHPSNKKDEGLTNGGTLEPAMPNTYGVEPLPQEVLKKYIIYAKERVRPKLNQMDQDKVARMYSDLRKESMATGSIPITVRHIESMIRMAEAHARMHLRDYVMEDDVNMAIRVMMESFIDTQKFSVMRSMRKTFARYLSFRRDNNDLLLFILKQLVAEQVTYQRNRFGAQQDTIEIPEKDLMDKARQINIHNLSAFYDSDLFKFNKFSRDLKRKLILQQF",
  "assay": "co-IP",
  "data": [
    {"binder": "B1", "values": [
      {"measurement": "binding result", "value": "binds"}
    ]}
  ]
}
